Source: patent US20070202045A1
Bridges are numbered along the chain shown (N, C = ends). Where no end group is shown, it is not given here.

Assays:
mouse albumin (mouse) [1] = biological target: mouse albumin (mouse) (UniProt P07724); assay: solution binding ELISA; end of the range tied by Table 14 (41 nM)
rabbit albumin (rabbit) = rabbit albumin (rabbit) (UniProt P49065); assay: direct binding ELISA, immobilized albumin
rat albumin (rat) [2] = biological target: rat albumin (rat) (UniProt P02770); assay: Kd for albumin as listed with the PK data (solution binding ELISA)
Sequence of rat albumin (rat) (P02770 25-608 limits assumed): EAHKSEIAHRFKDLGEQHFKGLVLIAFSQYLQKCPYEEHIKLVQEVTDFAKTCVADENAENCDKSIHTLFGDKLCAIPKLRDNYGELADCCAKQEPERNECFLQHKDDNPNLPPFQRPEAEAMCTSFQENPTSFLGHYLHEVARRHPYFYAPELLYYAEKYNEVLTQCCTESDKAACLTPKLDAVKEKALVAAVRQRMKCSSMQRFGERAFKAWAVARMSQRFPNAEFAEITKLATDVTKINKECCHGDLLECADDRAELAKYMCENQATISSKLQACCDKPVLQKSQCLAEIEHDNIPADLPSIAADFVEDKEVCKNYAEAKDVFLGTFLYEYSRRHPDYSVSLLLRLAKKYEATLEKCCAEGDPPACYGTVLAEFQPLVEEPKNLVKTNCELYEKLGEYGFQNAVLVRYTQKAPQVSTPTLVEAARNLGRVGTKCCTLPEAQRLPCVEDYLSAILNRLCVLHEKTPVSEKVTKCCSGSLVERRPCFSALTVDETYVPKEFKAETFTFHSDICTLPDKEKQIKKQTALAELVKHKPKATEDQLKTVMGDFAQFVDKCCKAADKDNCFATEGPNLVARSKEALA

rat albumin (rat) [3] = biological target: rat albumin (rat) (UniProt P02770); assay: direct binding ELISA, immobilized albumin
mouse albumin (mouse) [4] = biological target: mouse albumin (mouse) (UniProt P07724); assay: direct binding ELISA, immobilized albumin
rat albumin (rat) [5] = biological target: rat albumin (rat) (UniProt P02770); assay: solution binding ELISA (Scatchard)
mouse albumin (mouse) [6] = biological target: mouse albumin (mouse) (UniProt P07724); assay: solution binding ELISA (Scatchard)

Sequence of rabbit albumin (rabbit) (P49065 25-608 limits assumed): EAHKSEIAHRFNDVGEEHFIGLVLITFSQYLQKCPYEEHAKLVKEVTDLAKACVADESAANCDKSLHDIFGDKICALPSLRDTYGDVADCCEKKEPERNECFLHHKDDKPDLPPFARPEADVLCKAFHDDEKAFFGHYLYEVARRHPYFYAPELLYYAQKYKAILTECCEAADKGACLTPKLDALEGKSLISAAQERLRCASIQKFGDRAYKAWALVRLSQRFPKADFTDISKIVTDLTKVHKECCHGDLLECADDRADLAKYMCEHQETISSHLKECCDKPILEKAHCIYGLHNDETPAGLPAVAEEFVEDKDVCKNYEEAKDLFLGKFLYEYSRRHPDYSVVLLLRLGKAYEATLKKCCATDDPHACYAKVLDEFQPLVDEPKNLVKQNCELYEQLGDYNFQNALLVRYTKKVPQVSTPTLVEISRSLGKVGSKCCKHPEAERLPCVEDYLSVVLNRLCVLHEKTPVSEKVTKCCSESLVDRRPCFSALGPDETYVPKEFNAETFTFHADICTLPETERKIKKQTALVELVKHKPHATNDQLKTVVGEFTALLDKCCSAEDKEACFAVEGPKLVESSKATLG
Sequence of mouse albumin (mouse) (P07724 25-608 limits assumed): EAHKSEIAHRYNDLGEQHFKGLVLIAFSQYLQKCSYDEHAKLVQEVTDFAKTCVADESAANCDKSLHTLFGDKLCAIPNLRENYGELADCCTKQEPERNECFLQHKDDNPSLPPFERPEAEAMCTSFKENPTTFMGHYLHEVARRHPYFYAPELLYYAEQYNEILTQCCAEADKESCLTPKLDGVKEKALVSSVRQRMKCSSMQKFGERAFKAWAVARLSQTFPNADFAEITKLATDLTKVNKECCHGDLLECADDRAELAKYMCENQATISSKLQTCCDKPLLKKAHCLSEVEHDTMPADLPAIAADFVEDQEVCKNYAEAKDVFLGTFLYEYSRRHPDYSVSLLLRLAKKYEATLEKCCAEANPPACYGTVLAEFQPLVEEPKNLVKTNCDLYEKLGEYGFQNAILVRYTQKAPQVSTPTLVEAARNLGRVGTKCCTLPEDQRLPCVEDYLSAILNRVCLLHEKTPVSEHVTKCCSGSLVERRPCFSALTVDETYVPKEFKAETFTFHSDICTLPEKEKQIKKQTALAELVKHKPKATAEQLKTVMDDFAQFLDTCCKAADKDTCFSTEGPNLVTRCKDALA

Binder	Kd (mouse albumin (mouse) [1]) [nM]	EC50 (rabbit albumin (rabbit)) [nM]	Kd (rat albumin (rat) [2]) [nM]	EC50 (rat albumin (rat) [3]) [nM]	EC50 (mouse albumin (mouse) [4]) [nM]	Kd (rat albumin (rat) [5]) [nM]	Kd (mouse albumin (mouse) [6]) [nM]
{Fab4D5 heavy chain (…CDKTH)}-IEDICLPRWGCLWE (Fab, part only; not given: carrier Fab4D5 heavy and light chains, not shown: another chain or arm of the molecule; large carriers, disulfide 5-11) [AB.Fab4D5-H8]	40	500					
{Fab4D5 heavy chain (…CDKTH)}-DICLPRWGCL (Fab, part only; not given: Carrier Fab (trastuzumab), not shown: another chain or arm of the molecule; large carriers, disulfide 3-9) [AB.Fab4D5-H11]		> 2000	2500	> 1000	> 2000	2430	1250

Second part, the binder after the results:

Kd (mouse albumin (mouse) [1]) [nM]	EC50 (rabbit albumin (rabbit)) [nM]	Kd (rat albumin (rat) [2]) [nM]	EC50 (rat albumin (rat) [3]) [nM]	EC50 (mouse albumin (mouse) [4]) [nM]	Kd (rat albumin (rat) [5]) [nM]	Kd (mouse albumin (mouse) [6]) [nM]	Binder
	> 2000		8				{Fab4D5 heavy chain (…CDKTH)}-DICLPRWGCLW (Fab, part only; not given: carrier Fab4D5 heavy and light chains, not shown: another chain or arm of the molecule; large carriers, disulfide 3-9) [AB.Fab4D5-H10]
	500						{Fab4D5 heavy chain (…CDKTH)}-DICLPRWGCLWED (Fab, part only; not given: carrier Fab4D5 heavy and light chains, not shown: another chain or arm of the molecule; large carriers, disulfide 3-9) [AB.Fab4D5-H4]
